Patent US20030096757

Biological target: T1, 19-mer (SEQ ID NO:11) cleavage domain peptide
T1 chain: PRCGNPDVANYNFFPRKPK

B1: Proenzyme pro-MMP-9 (protein)
chain: APRQRQSTLVLFPGDLRTNLTDRQLAEEYLYRYGYTRVAEMRGESKSLGPALLLLQKQLSLPETGELDSATLKAMRTPRCGVPDLGRFQTFEGDLKWHHHNITYWIQNYSEDLPRAVIDDAFARAFALWSAVTPLTFTRVYSRDADIVIQFGVAEHGDGYPFDGKDGLLAHAFPPGPGIQGDAHFDDDELWSLGKGVVVPTRFGNADGAACHFPFIFEGRSYSACTTDGRSDGLPWCSTTANYDTDDRFGFCPSERLYTQDGNADGKPCQFPFIFQGQSYSACTTDGRSDGYRWCATTANYDRDKLFGFCPTRADSTVMGGNSAGELCVFPFTFLGKEYSTCTSEGRGDGRLWCATTSNFDSDKKWGFCPDQGYSLFLVAAHEFGHALGLDHSSVPEALMYPMYRFTEGPPLHKDDVNGIRHLYGPRPEPEPRPPTTTTPQPTAPPTVCPTGPPTVHPSERPTAGPTGPPSAGPTGPPTAGPSTATTVPLSPVDDACNVNIFDAIAEIGNQLYLFKDGKYWRFSEGRGSRPQGPFLIADKWPALPRKLDSVFEERLSKKLFFFSGRQVWVYTGASVLGPRRLDKLGLGADVAQVTGALRSGRGKMLLFSGRRLWRFDVKAQMVDPRSASEVDRMFPGVPLDTHDVFQYREKAYFCQDRFYWRVSSRSELNQVDQVGYVTYDILQCPED
anti-activation (splicing) assay: conversion of pro-MMP-9 by stromilysin, HPLC peak areas: Titrating the standard splicing reaction with the 19-mer (SEQ ID NO:11) peptide prevents the conversion of pro-MMP-9 into the prodomain and the active enzyme. Splicing can be inhibited in a dose dependent manner with micromolar 19-mer (SEQ ID NO:11) peptide.
